Data published in patent publication US20230272011A1 (AVACTA LIFE SCIENCES, published 2023).

Legend:
human serum albumin [1] = target: T1, human serum albumin (human, UniProt P02768 25-609); test: binding ELISA on coated albumin, pH 6.0, panel 'HSA Binding at pH 6.0'
T1 construct: mature; Bought protein; biotinylated in the Octet and HTRF assays; also called HSA; HuSA
Procedure: (§1) Briefly, ELISA was performed as follow:
(§2) Human (Sigma-Aldrich); Cynomolgus and Mouse (Abcam); Equine (Abcam); Canine (Abcam); Mouse (Sigma-Aldrich); Rabbit (Sigma-Aldrich); Porcine (Sigma-Aldrich);, and Rat (Sigma-Aldrich) serum albumin were coated overnight on 96 well plates (Corning Costar) at 1 μg/ml in PBS at the appropriate pH (pH 6.0 or 7.4). Plates were saturated using 5% Casein (Sigma-Aldrich) buffer in PBS. […] Plates were then washed and AFFIMER® proteins were detected using a biotinylated polyclonal antibody anti-Cystatin (R&D System) for 90 minutes. After washing, streptavidin-HRP (Thermo Fisher Scientific) was added and incubated for 30 minutes.

canine serum albumin [2] = target: T2, canine serum albumin (canine, UniProt P49822 25-608); test: binding ELISA on coated albumin, pH 6.0, panel 'Canine SA Binding at pH 6.0'
Procedure: as §1, §2

porcine serum albumin [3] = target: T3, porcine serum albumin (porcine, UniProt P08835 25-607); test: binding ELISA on coated albumin, pH 6.0, panel 'Porcine SA Binding at pH 6.0'
Procedure: as §1, §2

cynomolgus serum albumin [4] = target: T4, cynomolgus serum albumin (cynomolgus); test: binding ELISA on coated albumin, pH 6.0, panel 'CSA Binding at pH 6.0'
T4 construct: also called CSA; cyno serum albumin
Procedure: as §1, §2

mouse serum albumin [5] = target: T5, mouse serum albumin (mouse, UniProt P07724 25-608); test: BLI (Octet), biotinylated albumin on SA sensor, pH 6.0
T5 construct: also called MSA
How it was run: (§3)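 SA sensor, antigen 1 μg/ml × 600 s; buffer PBS-T 0.01% Tween 20 + 1% casein, pH 6.0 or 7.4; 25° C, 1000 rpm. 1:1 global fit, Rmax unlinked.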

cynomolgus serum albumin [6] = target: T4, cynomolgus serum albumin; test: as above
How it was run: as §3

human serum albumin [7] = target: T1, human serum albumin; test: as above
How it was run: as §3

mouse serum albumin [8] = target: T5, mouse serum albumin; test: binding ELISA on coated albumin, pH 6.0, panel 'MSA Binding at pH 6.0'
Procedure: as §1, §2

rat serum albumin [9] = target: T6, rat serum albumin (rat, UniProt P02770 25-608); test: binding ELISA on coated albumin, pH 6.0, panel 'Rat SA Binding at pH 6.0'
Procedure: as §1, §2

mouse serum albumin [10] = target: T5, mouse serum albumin; test: BLI (Octet), biotinylated albumin on SA sensor, pH 7.4
How it was run: as §3

cynomolgus serum albumin [11] = target: T4, cynomolgus serum albumin; test: as above
How it was run: as §3

human serum albumin [12] = target: T1, human serum albumin; test: as above
How it was run: as §3

mouse serum albumin [13] = target: T5, mouse serum albumin; test: Octet biolayer interferometry, biotinylated albumin on SA sensors, pH 7.4
Procedure: (§4) Biotinylated antigen was captured onto SA sensors at 1 μg/ml for 600 seconds in a buffer comprising PBS-T (0.01% Tween 20)+1% casein at either pH 6.0 or 7.4. Association was carried out for 300 seconds and dissociation for 600 seconds, and regeneration was performed using 10 mM glycine pH 1.5 (GE Healthcare) for 3×5 seconds. All steps were carried out at 1000 rpm and 25° C. Purified AFFIMER® polypeptide in two-fold serial dilutions was analyzed at a starting concentration of approximately 10× K_{D value}. Kinetics analyses were carried out using the Octet data analysis software, subtracting the reference sensor (loaded with antigen), aligning the Y-axis to baseline, and using inter-step correction to align association to dissociation. Savitzky-Golay filtering was applied and the data processed. Analysis of the data was carried out with a 1:1 model, global fit, Rₘₐₓ unlinked by sensor.

cynomolgus serum albumin [14] = target: T4, cynomolgus serum albumin; test: as above
Procedure: as §4

human serum albumin [15] = target: T1, human serum albumin; test: as above
Procedure: as §4

rabbit serum albumin [16] = target: T7, rabbit serum albumin (rabbit, UniProt P49065 25-608); test: binding ELISA, coated albumin, pH 7.4
Procedure: as §1, §2

rat serum albumin [17] = target: T6, rat serum albumin; test: binding ELISA, coated albumin, pH 7.4
Procedure: as §1, §2

canine serum albumin [18] = target: T2, canine serum albumin; test: binding ELISA, coated albumin, pH 7.4
Procedure: as §1, §2

porcine serum albumin [19] = target: T3, porcine serum albumin; test: binding ELISA, coated albumin, pH 7.4
Procedure: as §1, §2

mouse serum albumin [20] = target: T5, mouse serum albumin; test: binding ELISA, coated albumin, pH 7.4
Procedure: as §1, §2

equine serum albumin [21] = target: T8, equine serum albumin (equine, UniProt P35747 25-607); test: binding ELISA, coated albumin, pH 7.4
Procedure: as §1, §2

cynomolgus serum albumin [22] = target: T4, cynomolgus serum albumin; test: binding ELISA, coated albumin, pH 7.4
Procedure: as §1, §2

human serum albumin [23] = target: T1, human serum albumin; test: binding ELISA, coated albumin, pH 7.4
Procedure: as §1, §2

mouse serum albumin [24] = target: T5, mouse serum albumin; test: Octet biolayer interferometry, biotinylated albumin on SA sensors, pH 6.0
Procedure: as §4

cynomolgus serum albumin [25] = target: T4, cynomolgus serum albumin; test: as above
Procedure: as §4

human serum albumin [26] = target: T1, human serum albumin; test: as above
Procedure: as §4

recombinant FcRn = target: T9, recombinant FcRn (Homo sapiens (Human), UniProt P55899 24-297; P61769 21-119, Biotinylated (site and any tag carrying the biotin are not stated); captured on a Biotin CAPture chip.); test: Biacore, biotinylated FcRn on Biotin CAPture chip, PBS-T pH 6.0
T9 construct: Captured on a Biotin CAPture chip; also called biotinylated FcRn (Amsbio); copies: 1 + 1
Procedure: FcRn Biacore binding analysis was performed using Biotin CAPture chip according to the manufacturer's protocol (GE Healthcare). Briefly, Biotin CAPture reagent was run for 300 sec at a 2 μl/min flow rate over surfaces Fc1 and Fc2 followed by the capture of biotinylated FcRn (Amsbio) at 10 μg/mL with a contact time of 50 seconds, run at 10 μl/min delivered to Fc2 only. […] Surface Fc1 and Fc2 regeneration was performed according to the manufacturer's protocol.

rabbit serum albumin [27] = target: T7, rabbit serum albumin; test: binding ELISA on coated albumin, pH 7.4, panel 'Rabbit SA Binding at pH 7.4' (Table 6 gives NA for this pair)
Procedure: as §1, §2

equine serum albumin [28] = target: T8, equine serum albumin; test: binding ELISA on coated albumin, pH 7.4, panel 'Equine SA Binding at pH 7.4' (Table 6 gives NA for this pair)
Procedure: as §1, §2

mouse serum albumin [29] = target: T5, mouse serum albumin; test: SPR (Biacore T200), albumin amine-coupled to CM5, Affimer analyte, pH 7.4
Procedure: (§5) Affinities for mouse, human, and cynomolgus serum were also measured at pH 7.4 for four (4) AFFIMER® binders using surface plasmon resonance (SPR) (FIG. 5, Table 5). […] A concentration titration of AFFIMER® monomers was run as analyte at a flow rate of 30 μl/min or 60 μl/min. Fc2-1, Fc3-1 and Fc4-1 kinetic data was blank subtracted and fit to a 1:1 Langmuir binding model (BIAcore Evalution software; GE) to calculate KD values.

cynomolgus serum albumin [30] = target: T4, cynomolgus serum albumin; test: as above
Procedure: as §5

human serum albumin [31] = target: T1, human serum albumin; test: as above
Procedure: as §5

T5 sequence (P07724 25-608 limits assumed): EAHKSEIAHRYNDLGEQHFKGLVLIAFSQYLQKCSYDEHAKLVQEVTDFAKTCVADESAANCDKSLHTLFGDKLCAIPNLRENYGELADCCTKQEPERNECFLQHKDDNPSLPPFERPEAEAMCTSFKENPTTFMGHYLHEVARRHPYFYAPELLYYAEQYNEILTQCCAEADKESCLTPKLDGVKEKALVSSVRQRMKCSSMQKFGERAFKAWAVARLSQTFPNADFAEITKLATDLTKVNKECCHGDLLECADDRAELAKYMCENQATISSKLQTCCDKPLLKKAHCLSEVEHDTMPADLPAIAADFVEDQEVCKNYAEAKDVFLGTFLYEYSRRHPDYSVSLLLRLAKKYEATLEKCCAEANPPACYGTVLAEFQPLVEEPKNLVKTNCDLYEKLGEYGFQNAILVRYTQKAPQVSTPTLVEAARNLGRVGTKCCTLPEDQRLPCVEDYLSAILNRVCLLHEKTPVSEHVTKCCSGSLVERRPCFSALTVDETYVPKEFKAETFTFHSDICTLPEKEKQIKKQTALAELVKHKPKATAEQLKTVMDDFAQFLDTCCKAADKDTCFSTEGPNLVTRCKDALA
T4 sequence (A2V9Z4 25-608): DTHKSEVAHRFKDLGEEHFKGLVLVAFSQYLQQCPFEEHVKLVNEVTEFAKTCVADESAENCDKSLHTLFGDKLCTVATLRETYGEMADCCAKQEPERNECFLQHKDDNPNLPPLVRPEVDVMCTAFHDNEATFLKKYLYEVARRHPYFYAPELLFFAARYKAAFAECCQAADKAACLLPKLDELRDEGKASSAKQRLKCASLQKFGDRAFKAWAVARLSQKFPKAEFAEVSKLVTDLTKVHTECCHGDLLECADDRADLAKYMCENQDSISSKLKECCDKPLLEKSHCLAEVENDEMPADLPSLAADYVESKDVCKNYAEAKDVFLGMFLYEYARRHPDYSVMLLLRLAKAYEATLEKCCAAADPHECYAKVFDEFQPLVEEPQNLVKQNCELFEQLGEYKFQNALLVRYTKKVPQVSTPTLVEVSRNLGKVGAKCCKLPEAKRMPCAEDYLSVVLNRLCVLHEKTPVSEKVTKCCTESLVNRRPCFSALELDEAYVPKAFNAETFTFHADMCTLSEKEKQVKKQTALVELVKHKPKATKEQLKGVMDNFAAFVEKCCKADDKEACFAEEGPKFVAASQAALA
T6 sequence (P02770 25-608 limits assumed): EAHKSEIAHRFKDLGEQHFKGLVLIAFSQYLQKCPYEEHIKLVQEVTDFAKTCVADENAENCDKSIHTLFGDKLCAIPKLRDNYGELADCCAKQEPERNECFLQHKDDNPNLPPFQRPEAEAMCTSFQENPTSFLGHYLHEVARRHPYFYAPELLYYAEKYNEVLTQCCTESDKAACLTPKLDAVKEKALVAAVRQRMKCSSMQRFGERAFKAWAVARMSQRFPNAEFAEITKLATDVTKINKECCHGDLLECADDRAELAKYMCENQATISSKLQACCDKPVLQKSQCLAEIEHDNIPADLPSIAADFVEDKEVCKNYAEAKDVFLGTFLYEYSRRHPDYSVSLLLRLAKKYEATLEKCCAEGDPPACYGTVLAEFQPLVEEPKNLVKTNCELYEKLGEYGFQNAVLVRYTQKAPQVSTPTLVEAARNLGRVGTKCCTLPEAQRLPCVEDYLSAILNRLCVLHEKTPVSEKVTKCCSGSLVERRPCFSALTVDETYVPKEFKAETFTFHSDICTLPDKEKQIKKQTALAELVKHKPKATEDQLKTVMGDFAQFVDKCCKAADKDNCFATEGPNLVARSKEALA
T2 sequence (P49822 25-608 limits assumed): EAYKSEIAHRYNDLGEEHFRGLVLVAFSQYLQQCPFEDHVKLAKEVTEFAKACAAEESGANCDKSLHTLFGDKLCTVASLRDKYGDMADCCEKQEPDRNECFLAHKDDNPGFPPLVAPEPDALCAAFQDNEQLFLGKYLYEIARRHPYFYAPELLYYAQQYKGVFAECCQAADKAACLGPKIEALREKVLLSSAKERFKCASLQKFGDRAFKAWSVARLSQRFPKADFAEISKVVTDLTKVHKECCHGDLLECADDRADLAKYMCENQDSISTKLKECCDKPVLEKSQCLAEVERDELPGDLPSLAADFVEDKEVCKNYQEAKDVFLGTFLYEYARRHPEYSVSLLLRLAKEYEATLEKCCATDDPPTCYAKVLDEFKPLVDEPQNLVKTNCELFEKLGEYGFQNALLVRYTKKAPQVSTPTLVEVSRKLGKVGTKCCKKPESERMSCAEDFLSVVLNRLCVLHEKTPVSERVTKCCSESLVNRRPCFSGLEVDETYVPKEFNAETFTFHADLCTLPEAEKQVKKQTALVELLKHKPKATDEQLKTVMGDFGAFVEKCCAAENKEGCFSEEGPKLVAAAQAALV
T3 sequence (P08835 25-607 limits assumed): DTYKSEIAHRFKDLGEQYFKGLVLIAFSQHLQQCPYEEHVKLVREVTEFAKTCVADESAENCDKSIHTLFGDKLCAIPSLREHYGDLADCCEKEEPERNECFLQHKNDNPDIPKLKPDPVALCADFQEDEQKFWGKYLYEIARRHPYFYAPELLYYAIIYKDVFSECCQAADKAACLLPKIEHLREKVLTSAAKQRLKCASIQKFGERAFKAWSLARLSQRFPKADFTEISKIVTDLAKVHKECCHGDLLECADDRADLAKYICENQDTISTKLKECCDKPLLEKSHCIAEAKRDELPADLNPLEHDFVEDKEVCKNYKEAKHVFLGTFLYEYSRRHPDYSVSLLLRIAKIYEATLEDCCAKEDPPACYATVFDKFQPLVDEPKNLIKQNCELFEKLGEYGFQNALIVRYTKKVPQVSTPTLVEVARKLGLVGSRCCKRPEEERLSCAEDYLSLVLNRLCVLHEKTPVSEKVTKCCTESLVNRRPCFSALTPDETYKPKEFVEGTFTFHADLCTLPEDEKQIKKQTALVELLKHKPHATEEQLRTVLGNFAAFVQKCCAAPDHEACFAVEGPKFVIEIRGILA
T7 sequence (P49065 25-608 limits assumed): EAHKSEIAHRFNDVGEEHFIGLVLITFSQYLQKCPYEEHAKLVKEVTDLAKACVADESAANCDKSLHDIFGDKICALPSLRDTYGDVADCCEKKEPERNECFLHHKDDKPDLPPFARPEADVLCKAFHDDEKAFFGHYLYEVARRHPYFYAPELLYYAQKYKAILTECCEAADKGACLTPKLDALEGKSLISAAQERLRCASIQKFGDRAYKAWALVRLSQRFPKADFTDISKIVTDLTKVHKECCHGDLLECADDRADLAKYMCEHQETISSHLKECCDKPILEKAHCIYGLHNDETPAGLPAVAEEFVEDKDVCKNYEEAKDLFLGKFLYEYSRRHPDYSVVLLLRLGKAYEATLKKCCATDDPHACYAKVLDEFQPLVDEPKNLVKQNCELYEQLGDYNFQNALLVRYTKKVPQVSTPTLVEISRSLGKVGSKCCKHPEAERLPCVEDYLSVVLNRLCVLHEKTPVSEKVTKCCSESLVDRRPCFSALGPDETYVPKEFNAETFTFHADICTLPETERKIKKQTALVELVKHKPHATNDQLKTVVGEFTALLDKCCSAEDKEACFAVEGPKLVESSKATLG
T8 sequence (P35747 25-607 limits assumed): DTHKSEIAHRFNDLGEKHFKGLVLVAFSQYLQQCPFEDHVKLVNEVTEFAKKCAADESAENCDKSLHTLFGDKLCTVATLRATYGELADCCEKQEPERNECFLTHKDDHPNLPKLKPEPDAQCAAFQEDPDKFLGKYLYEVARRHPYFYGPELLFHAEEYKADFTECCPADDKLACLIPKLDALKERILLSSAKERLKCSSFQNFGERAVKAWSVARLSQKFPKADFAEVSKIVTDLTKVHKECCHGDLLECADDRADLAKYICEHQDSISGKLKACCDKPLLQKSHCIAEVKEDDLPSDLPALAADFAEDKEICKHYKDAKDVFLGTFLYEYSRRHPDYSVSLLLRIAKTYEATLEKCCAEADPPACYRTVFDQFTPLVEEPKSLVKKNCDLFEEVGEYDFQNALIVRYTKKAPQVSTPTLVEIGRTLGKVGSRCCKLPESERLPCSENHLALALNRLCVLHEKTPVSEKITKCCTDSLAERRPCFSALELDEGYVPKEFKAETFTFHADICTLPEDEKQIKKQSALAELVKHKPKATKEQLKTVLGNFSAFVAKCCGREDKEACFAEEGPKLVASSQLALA
T9 sequence (P55899 24-297 limits assumed, chain 1 of 2): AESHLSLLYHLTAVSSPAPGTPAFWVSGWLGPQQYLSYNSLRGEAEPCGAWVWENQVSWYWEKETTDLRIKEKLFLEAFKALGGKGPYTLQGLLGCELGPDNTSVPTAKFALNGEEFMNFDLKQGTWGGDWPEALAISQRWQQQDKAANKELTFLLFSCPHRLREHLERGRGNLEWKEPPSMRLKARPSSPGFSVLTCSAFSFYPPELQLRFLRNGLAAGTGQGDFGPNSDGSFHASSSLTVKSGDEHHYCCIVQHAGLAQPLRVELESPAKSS
T9 sequence (P61769 21-119 limits assumed, chain 2 of 2): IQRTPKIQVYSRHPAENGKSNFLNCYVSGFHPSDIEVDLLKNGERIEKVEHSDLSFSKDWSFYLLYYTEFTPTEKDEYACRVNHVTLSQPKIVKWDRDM

Binder	EC50 (read off the curve) (human serum albumin [1])	EC50 (read off the curve) (canine serum albumin [2])	EC50 (read off the curve) (cynomolgus serum albumin [4])	Kd (mouse serum albumin [5])	Kd (cynomolgus serum albumin [6])	Kd (human serum albumin [7])	EC50 (read off the curve) (rat serum albumin [9])	Kd (mouse serum albumin [10])	Kd (cynomolgus serum albumin [11])	Kd (human serum albumin [12])	koff (mouse serum albumin [13])	kon (mouse serum albumin [13])	koff (cynomolgus serum albumin [14])	kon (cynomolgus serum albumin [14])	koff (human serum albumin [15])	kon (human serum albumin [15])	EC50 (rat serum albumin [17])	EC50 (porcine serum albumin [19])	EC50 (cynomolgus serum albumin [22])	EC50 (human serum albumin [23])	further results
HSA-31 (designed binder) MIPRGLSEAKPATPEIQEIVDKVKPQLEEKTNETYGKLEAVQYKTQVLAVWGPEYQHQSTNYYIKVRAGDNKYMHLKVFNGPNAGWPLVPEADRVLTGYQVDKNKDDELTGFHHHHHH	~1 nM	~2 nM	~0.6 nM	3.7 nM	18.5 nM	21.1 nM	~0.04 nM	3.3 nM	83 nM	15.3 nM	0.000575 s⁻¹	176000 M⁻¹ s⁻¹	0.0037 s⁻¹	44600 M⁻¹ s⁻¹	0.00317 s⁻¹	208000 M⁻¹ s⁻¹	0.39 nM	2.6 nM	0.43 nM	0.47 nM	EC50 (read off the curve) (porcine serum albumin [3]): ~9 nM; EC50 (read off the curve) (mouse serum albumin [8]): ~0.06 nM; EC50 (rabbit serum albumin [16]): 211 nM; EC50 (canine serum albumin [18]): 3.17 nM; EC50 (mouse serum albumin [20]): 0.03 nM; EC50 (equine serum albumin [21]): 0.25 nM; kon (mouse serum albumin [24]): 166000 M⁻¹ s⁻¹; koff (cynomolgus serum albumin [25]): 0.00218 s⁻¹; kon (cynomolgus serum albumin [25]): 118000 M⁻¹ s⁻¹; koff (human serum albumin [26]): 0.00245 s⁻¹; kon (human serum albumin [26]): 116000 M⁻¹ s⁻¹
HSA-20 (designed binder) MIPRGLSEAKPATPEIQEIVDKVKPQLEEKTNETYGKLEAVQYKTQVLAGYWAAKWPGSTNYYIKVRAGDNKYMHLKVFNGPFPNTSYDLQADRVLTGYQVDKNKDDELTGFHHHHHH	~7 nM	~20 nM	~20 nM	511 nM	133 nM	23.4 nM	~1 nM	622 nM	213 nM	40.5 nM	0.0509 s⁻¹	81800 M⁻¹ s⁻¹	0.0148 s⁻¹	69600 M⁻¹ s⁻¹	0.00517 s⁻¹	128000 M⁻¹ s⁻¹	16.1 nM	894 nM	9.55 nM	18.9 nM	binding result (recombinant FcRn): no binding; binding result (rabbit serum albumin [27]): binds; binding result (equine serum albumin [28]): binds; Kd (mouse serum albumin [29]): 855 nM; koff (mouse serum albumin [29]): 0.0981 s⁻¹; kon (mouse serum albumin [29]): 115000 M⁻¹ s⁻¹; Kd (cynomolgus serum albumin [30]): 419 nM; koff (cynomolgus serum albumin [30]): 0.0199 s⁻¹; kon (cynomolgus serum albumin [30]): 47600 M⁻¹ s⁻¹; Kd (human serum albumin [31]): 350 nM; koff (human serum albumin [31]): 0.0183 s⁻¹; kon (human serum albumin [31]): 52200 M⁻¹ s⁻¹; koff (mouse serum albumin [24]): 0.0596 s⁻¹; kon (mouse serum albumin [24]): 117000 M⁻¹ s⁻¹; koff (cynomolgus serum albumin [25]): 0.00611 s⁻¹; kon (cynomolgus serum albumin [25]): 45700 M⁻¹ s⁻¹; koff (human serum albumin [26]): 0.00501 s⁻¹; kon (human serum albumin [26]): 214000 M⁻¹ s⁻¹
